Measured values reported in patent publication US20240116985A1, “STAPLED PEPTIDES AND METHODS THEREOF” (priority 2020, published 2024).
Starred links: 1 amine or outer side, 2 acyl side, 3 side chain; linkers in the order of their positions; H or OH if unused. Positions of bridges follow the written chain, without caps; N, C: chain ends. Non-standard residues stand in square brackets, D forms with d. Primed or numbered codes have the meaning given here. No end group written: not given here. PyrS2″ = (S)-3-amino-1-((pent-4-en-1-yloxy)carbonyl)pyrrolidine-3-carboxylic acid (stapling residue), C=CCCCOC(=O)N1CC[C@@](N[*:1])(C(=O)[*:2])C1; B5(4) = 2,2-bis(4-pentenyl)glycine = 2-amino-2-(pent-4-en-1-yl)hept-6-enoic acid (stitching residue), C=CCCCC(CCCC=C)(N[*:1])C(=O)[*:2]; B5(5) = 2,2-bis(4-pentenyl)glycine, 2-amino-2-(pent-4-en-1-yl)hept-6-enoic acid (stitching residue), C=CCCCC(CCCC=C)(N[*:1])C(=O)[*:2]; B5(8) = 2,2-bis(4-pentenyl)glycine (2-amino-2-(pent-4-en-1-yl)hept-6-enoic acid, stitching residue), C=CCCCC(CCCC=C)(N[*:1])C(=O)[*:2]; TfeGA = (S)-2-amino-3-((carboxymethyl)(2,2,2-trifluoroethyl)amino)propanoic acid, O=C([C@H](CN(CC(=O)[*:3])CC(F)(F)F)N[*:1])[*:2]; PyrS2 = (S)-3-amino-1-((pent-4-en-1-yloxy)carbonyl)pyrrolidine-3-carboxylic acid, C=CCCCOC(=O)N1CC[C@@](N[*:1])(C(=O)[*:2])C1; PyrS3 = (S)-3-amino-1-((hex-5-en-1-yloxy)carbonyl)pyrrolidine-3-carboxylic acid, C=CCCCCOC(=O)N1CC[C@@](N[*:1])(C(=O)[*:2])C1; Az2 = 3-amino-1-((pent-4-en-1-yloxy)carbonyl)azetidine-3-carboxylic acid, C=CCCCOC(=O)N1CC(N[*:1])(C(=O)[*:2])C1; Az3 = 3-amino-1-((hex-5-en-1-yloxy)carbonyl)azetidine-3-carboxylic acid, C=CCCCCOC(=O)N1CC(N[*:1])(C(=O)[*:2])C1; B5(7) = 2-amino-2-(pent-4-en-1-yl)hept-6-enoic acid, two olefinic side chains, C=CCCCC(CCCC=C)(N[*:1])C(=O)[*:2]; B5(13) = 2-amino-2-(pent-4-en-1-yl)hept-6-enoic acid (two alkene chains), C=CCCCC(CCCC=C)(N[*:1])C(=O)[*:2]; B5(3) = 2,2-bis(4-pentenyl)glycine (stitching residue), C=CCCCC(CCCC=C)(N[*:1])C(=O)[*:2]; B5 = 2-amino-2-(pent-4-en-1-yl)hept-6-enoic acid, C=CCCCC(CCCC=C)(N[*:1])C(=O)[*:2]; Phe(3-COOH) = N[C@@H](Cc1cccc(C(=O)O)c1)C(=O)O; Phe(4-COOH) = N[C@@H](Cc1ccc(C(=O)O)cc1)C(=O)O; Phe(2-Cl) = N[C@@H](Cc1ccccc1Cl)C(=O)O; Bta = N[C@@H](Cc1csc2ccccc12)C(=O)O; αAllylPro = C=CC[C@@]1(C(=O)O)CCCN1; tBuAla = CC(C)(C)C[C@H](N)C(=O)O; 3Thi = N[C@@H](Cc1ccsc1)C(=O)O; S8 = C=CCCCCCC[C@](C)(N)C(=O)O; hSer = N[C@@H](CCO)C(=O)O; Abu = CC[C@H](N)C(=O)O; Aib = CC(C)(N)C(=O)O

Legend:
[1] = target: full-length beta-Catenin (Uniprot ID P35222) (Homo sapiens (Human)) (UniProt P35222); experiment: fluorescence polarization competition; 5FAM-TCF4 10-53 probe on full-length beta-catenin
Target sequence in this assay (P35222 whole entry, one chain of several): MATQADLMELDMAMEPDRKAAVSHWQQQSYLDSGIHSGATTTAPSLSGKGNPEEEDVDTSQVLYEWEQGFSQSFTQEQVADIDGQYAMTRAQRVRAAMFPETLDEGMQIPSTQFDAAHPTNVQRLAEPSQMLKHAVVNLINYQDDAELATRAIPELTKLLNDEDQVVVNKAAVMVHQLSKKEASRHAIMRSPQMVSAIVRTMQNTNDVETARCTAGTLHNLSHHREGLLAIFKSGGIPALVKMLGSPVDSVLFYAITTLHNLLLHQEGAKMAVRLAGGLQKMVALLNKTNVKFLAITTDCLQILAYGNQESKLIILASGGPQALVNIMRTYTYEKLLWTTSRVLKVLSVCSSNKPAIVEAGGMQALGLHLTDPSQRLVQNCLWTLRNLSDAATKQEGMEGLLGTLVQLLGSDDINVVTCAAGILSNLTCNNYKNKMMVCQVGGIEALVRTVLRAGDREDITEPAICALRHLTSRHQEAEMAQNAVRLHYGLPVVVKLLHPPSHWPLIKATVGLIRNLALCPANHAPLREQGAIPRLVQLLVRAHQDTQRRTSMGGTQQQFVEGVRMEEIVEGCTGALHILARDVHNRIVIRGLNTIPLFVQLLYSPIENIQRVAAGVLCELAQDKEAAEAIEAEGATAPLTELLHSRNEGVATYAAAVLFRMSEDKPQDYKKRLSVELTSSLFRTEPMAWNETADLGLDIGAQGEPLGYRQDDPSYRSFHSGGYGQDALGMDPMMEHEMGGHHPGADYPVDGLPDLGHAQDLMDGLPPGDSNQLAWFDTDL

[2] = target: full-length beta-Catenin (Uniprot ID P35222) (Homo sapiens (Human)) (UniProt P35222); experiment: fluorescence polarization competition, peptide titrated against full-length beta-catenin + 5FAM-TCF4(10-53)
Target sequence in this assay (P35222 2-781 limits assumed): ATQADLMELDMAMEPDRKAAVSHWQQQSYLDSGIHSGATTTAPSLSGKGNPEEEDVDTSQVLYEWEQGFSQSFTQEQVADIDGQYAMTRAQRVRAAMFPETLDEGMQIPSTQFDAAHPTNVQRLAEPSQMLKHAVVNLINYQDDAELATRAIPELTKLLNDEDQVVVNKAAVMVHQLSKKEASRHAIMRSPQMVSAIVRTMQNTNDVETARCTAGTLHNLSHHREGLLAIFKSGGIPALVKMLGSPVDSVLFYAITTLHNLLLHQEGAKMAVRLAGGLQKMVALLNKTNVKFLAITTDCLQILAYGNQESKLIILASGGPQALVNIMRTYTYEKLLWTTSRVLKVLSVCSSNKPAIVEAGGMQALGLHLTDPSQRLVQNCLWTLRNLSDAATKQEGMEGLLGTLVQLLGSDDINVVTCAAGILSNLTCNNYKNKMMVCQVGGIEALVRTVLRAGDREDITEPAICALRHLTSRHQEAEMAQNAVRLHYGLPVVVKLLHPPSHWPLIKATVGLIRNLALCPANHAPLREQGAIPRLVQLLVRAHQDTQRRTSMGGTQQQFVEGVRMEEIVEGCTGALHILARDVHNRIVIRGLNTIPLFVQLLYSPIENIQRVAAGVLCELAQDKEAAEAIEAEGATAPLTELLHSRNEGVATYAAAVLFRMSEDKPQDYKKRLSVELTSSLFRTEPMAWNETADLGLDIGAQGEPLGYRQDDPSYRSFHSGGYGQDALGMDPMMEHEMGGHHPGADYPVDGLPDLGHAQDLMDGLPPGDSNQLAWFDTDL

[3] = target: full-length beta-Catenin (Uniprot ID P35222) (Homo sapiens (Human)) (UniProt P35222); experiment: fluorescence polarization competition; 10 nM full-length beta-catenin with 10 nM 5FAM-TCF4(10-53) probe
Target sequence in this assay (P35222 2-781 limits assumed): as above

[4] = target: Bcat-Halo (UniProt P35222); experiment: NanoBRET Abs IC50 in HEK293 cells; Bcat-Halo, TCF4-Luc as competitor
Bcat-Halo, sequence (P35222 whole entry): as the sequence (P35222 whole entry, one chain of several) above

[5] = target: full-length beta-Catenin (Uniprot ID P35222) (Homo sapiens (Human)) (UniProt P35222); experiment: competition fluorescence polarization; full-length beta-catenin, 5FAM-TCF4(10-53) probe as competitor
Target sequence in this assay (P35222 whole entry, one chain of several): as above

[6] = target: full-length beta-Catenin (Uniprot ID P35222) (Homo sapiens (Human)) (UniProt P35222); experiment: fluorescence polarization competition; displacement of 5FAM-TCF4(10-53) from full-length beta-catenin
Target sequence in this assay (P35222 whole entry, one chain of several): as above

[7] = target: full-length beta-Catenin (Uniprot ID P35222) (Homo sapiens (Human)) (UniProt P35222); experiment: fluorescence polarization competition; full-length beta-catenin, competitor 5FAM-TCF4(10-53) probe
[8] = target: Bcat-Halo (UniProt P35222); experiment: NanoBRET in HEK293 cells, Bcat-Halo / TCF4-Luc; peptide at 10 uM; competitor TCF4-Luc
[9] = target: full-length beta-Catenin (Uniprot ID P35222) (Homo sapiens (Human)) (UniProt P35222); experiment: fluorescence polarization competition; full-length beta-catenin; competitor displaced: 5FAM-TCF4 10-53
Target sequence in this assay (P35222 2-781 limits assumed): as the sequence (P35222 2-781 limits assumed) above

[10] = target: full-length beta-Catenin (Uniprot ID P35222) (Homo sapiens (Human)) (UniProt P35222); experiment: fluorescence polarization competition; full-length beta-catenin + 5FAM-TCF4(10-53) probe; peptide titrated
Target sequence in this assay (P35222 2-781 limits assumed): as above

[11] = target: full-length beta-Catenin (Uniprot ID P35222) (Homo sapiens (Human)) (UniProt P35222); experiment: fluorescence polarization competition; full-length beta-catenin, 5FAM-TCF4(10-53) probe
Target sequence in this assay (P35222 2-781 limits assumed): as above

[12] = target: full-length beta-Catenin (Uniprot ID P35222) (Homo sapiens (Human)) (UniProt P35222); experiment: fluorescence polarization competition, full-length beta-catenin with 5FAM-TCF4(10-53) probe
Target sequence in this assay (P35222 2-781 limits assumed): as above

[13] = target: full-length beta-Catenin (Uniprot ID P35222) (Homo sapiens (Human)) (UniProt P35222); experiment: FP competition vs 5FAM-TCF4(10-53) probe on full-length beta-catenin
Target sequence in this assay (P35222 whole entry, one chain of several): as the sequence (P35222 whole entry, one chain of several) above

[14] = target: full-length beta-Catenin (Uniprot ID P35222) (Homo sapiens (Human)) (UniProt P35222); experiment: AlphaScreen competition vs biotin-TCF4(10-53) on full-length beta-catenin
Target sequence in this assay (P35222 whole entry, one chain of several): as above

[15] = target: full-length beta-Catenin (Uniprot ID P35222) (Homo sapiens (Human)) (UniProt P35222); experiment: fluorescence polarization competition; 10 nM full-length beta-catenin with 10 nM 5FAM-labeled TCF4 residues 10-53 probe, peptide titrated
Target sequence in this assay (P35222 whole entry, one chain of several): as above

[16] = target: B-cat-Halo (beta-catenin HaloTag NanoBRET construct expressed in HEK293 cells) (UniProt P35222); experiment: NanoBRET Abs IC50; HEK293 cells transfected with B-cat-Halo and TCF4-Luc (competitor: TCF4-Luc)
B-cat-Halo (beta-catenin HaloTag NanoBRET construct expressed in HEK293 cells), sequence (P35222 whole entry): as the sequence (P35222 whole entry, one chain of several) above

[17] = target: full-length beta-Catenin (Uniprot ID P35222) (Homo sapiens (Human)) (UniProt P35222); experiment: fluorescence polarization competition; full-length beta-catenin, competitor probe 5FAM-TCF4(10-53)
[18] = target: full-length beta-Catenin (Uniprot ID P35222) (Homo sapiens (Human)) (UniProt P35222); experiment: fluorescence polarization competition; full-length beta-catenin with 5FAM-labeled TCF4 (10-53) probe as competitor
[19] = target: Bcat-Halo (UniProt P35222); experiment: NanoBRET in HEK293 cells, Bcat-Halo/TCF4-Luc (competitor TCF4-Luc); percent inhibition at 10 uM peptide
[20] = target: full-length beta-Catenin (Uniprot ID P35222) (Homo sapiens (Human)) (UniProt P35222); experiment: fluorescence polarization competition; peptide displaces 5FAM-TCF4(10-53) from full-length beta-catenin
[21] = target: Bcat-Halo (UniProt P35222); experiment: NanoBRET in HEK293 cells, Bcat-Halo/TCF4-Luc (competitor TCF4-Luc); absolute IC50
[22] = target: full-length beta-Catenin (Uniprot ID P35222) (Homo sapiens (Human)) (UniProt P35222); experiment: fluorescence polarization competition; full-length beta-catenin with 5FAM-TCF4(10-53) probe as competitor
[23] = target: full-length beta-Catenin (Uniprot ID P35222) (Homo sapiens (Human)) (UniProt P35222); experiment: fluorescence polarization competition vs 5FAM-TCF4(10-53) on full-length beta-catenin
[24] = target: full-length beta-Catenin (Uniprot ID P35222) (Homo sapiens (Human)) (UniProt P35222); experiment: fluorescence polarization competition; peptide titrated against full-length beta-catenin + 5FAM-TCF4(10-53) probe

B1: I-817 (peptide)
peptide: Ac-[αAllylPro]D[tBuAla][B5]DDAAFN[PyrS2″][3Thi][Bta][dT]-NH2
modifications: staple 1-4, 4-11
IC50 [1]: 10 nM | EC50 [2]: 10 nM

B2: I-2618 (peptide)
peptide: Ac-[αAllylPro]D[tBuAla][B5(3)]D[Phe(3-COOH)][Aib]AFL[Az3][3Thi][Bta]Q-NH2
modifications: staple 1-4, 4-11; not fully specified; printed as Ac-PL3-Asp-Npg-B5-Asp-3COOHF-Aib-Ala-Phe-Leu-Az3-3Thi-BztA-Gln-NH2
IC50 [3]: 77 nM

B3: I-571 (peptide)
peptide: Ac-[αAllylPro]D[Abu][B5(4)]DEAAFQ[S8]F[Bta]H-NH2
modifications: staple 1-4, 4-11
IC50 [4]: 15.6 µM | IC50 [5]: 32 nM | EC50 [6]: 32 nM

B4: I-574 (peptide)
peptide: Ac-[αAllylPro]D[Abu][B5]DDAAFN[S8]F[Bta]H-NH2
modifications: staple 1-4, 4-11
IC50 [4]: > 20 µM | EC50 [7]: 36 nM | IC50 [5]: 36 nM

B5: I-696 (peptide)
peptide: Ac-[αAllylPro]DL[B5(8)]DDAAFN[PyrS2″][3Thi][Bta]H-NH2
modifications: staple 1-4, 4-11
NanoBRET % inh @ 10 uM [8]: 17% | IC50 [9]: 5 nM | EC50 [10]: 5 nM

B6: I-582 (peptide)
peptide: Ac-[αAllylPro]D[tBuAla][B5(5)]DDAAFN[S8]F[Bta]H-NH2
modifications: staple 1-4, 4-11
IC50 [4]: 15.8 µM | EC50 [7]: 17.5 nM | IC50 [5]: 17.5 nM

B7: I-931 (peptide)
peptide: Ac-[αAllylPro]D[tBuAla][B5(3)]D[TfeGA]AAFF[S8][Phe(2-Cl)][Bta]Q-NH2
modifications: staple 1-4, 4-11
IC50 [11]: 221 nM | EC50 [12]: 221 nM

B8: I-293 (peptide)
peptide: Ac-[αAllylPro]DA[B5(4)]D[TfeGA]AAFV[S8]F[Bta]Q-NH2
modifications: staple 1-4, 4-11
EC50 [13]: 140 nM | EC50 [14]: 41 nM

B9: I-1985 (peptide)
peptide: PD[tBuAla][B5]D[Phe(3-COOH)]AAFL[PyrS2][Phe(2-Cl)][Bta]Q-NH2
modifications: staple 4-11; staple (positions not given here); not fully specified (residue 1, N-terminus, bridges); printed as ProAm6-Asp-Npg-B5-Asp-3COOHF-Ala-Ala-Phe-Leu-PyrS2-2C1F-BztA-Gln-NH2
IC50 [15]: 325 nM

B10: I-1984 (peptide)
peptide: PD[tBuAla][B5]D[Phe(3-COOH)]AAFL[PyrS2][Phe(2-Cl)][Bta]Q-NH2
modifications: staple 4-11; staple (positions not given here); not fully specified (residue 1, N-terminus, bridges); printed as ProAm5-Asp-Npg-B5-Asp-3COOHF-Ala-Ala-Phe-Leu-PyrS2-2C1F-BztA-Gln-NH2
IC50 [15]: 320 nM

B11: I-694 (peptide)
peptide: Ac-[αAllylPro]D[tBuAla][B5(8)]DDAAFN[PyrS2″][3Thi][Bta]H-NH2
modifications: staple 1-4, 4-11
NanoBRET % inh @ 10 uM [8]: 32.7% | IC50 [9]: 5 nM | EC50 [10]: 5 nM

B12: I-996 (peptide)
peptide: Ac-[αAllylPro]D[tBuAla][B5(3)]D[TfeGA]AAF[hSer][S8][Phe(2-Cl)][Bta]Q-NH2
modifications: staple 1-4, 4-11
IC50 [16]: 11.3 µM | IC50 [17]: 21 nM | EC50 [18]: 21 nM

B13: I-1986 (peptide)
peptide: PD[tBuAla][B5]D[TfeGA]AAFT[PyrS2][Phe(2-Cl)][Bta]Q-NH2
modifications: staple 4-11; staple (positions not given here); not fully specified (residue 1, N-terminus, bridges)
IC50 [15]: 502 nM

B14: I-2617 (peptide)
peptide: Ac-[αAllylPro]D[tBuAla][B5(3)]D[Phe(3-COOH)][Aib]AFL[Az2][3Thi][Bta]Q-NH2
modifications: staple 1-4, 4-11
IC50 [3]: 130 nM

B15: I-775 (peptide)
peptide: Ac-[αAllylPro]D[tBuAla][B5(13)]DDAAFN[PyrS3][3Thi][Bta]H-NH2
modifications: staple 1-4, 4-11
EC50 [7]: 7 nM | NanoBRET % inh @ 10 uM [19]: 5.1% | IC50 [20]: 6 nM

B16: I-769 (peptide)
peptide: Ac-[αAllylPro]D[tBuAla][B5(7)]D[TfeGA]AAFN[PyrS2][3Thi][Bta]H-NH2
modifications: staple 1-4, 4-11; also: earlier-eluting staple isomer
IC50 [21]: 13 µM | EC50 [7]: 5 nM | IC50 [22]: 5 nM

B17: I-770 (peptide)
peptide: Ac-[αAllylPro]D[tBuAla][B5(7)]D[TfeGA]AAFN[PyrS2][3Thi][Bta]H-NH2
modifications: staple 1-4, 4-11; also: later-eluting staple isomer
IC50 [21]: 13.7 µM | EC50 [7]: 5 nM | IC50 [22]: 5 nM

B18: I-339 (peptide)
peptide: Ac-[αAllylPro]DA[B5(4)]DDAAFV[S8][Phe(4-COOH)][Bta]Q-NH2
modifications: staple 1-4, 4-11; also: earlier-eluting staple isomer
IC50 [23]: 5 µM | EC50 [24]: 5 µM

B19: I-340 (peptide)
peptide: Ac-[αAllylPro]DA[B5(4)]DDAAFV[S8][Phe(4-COOH)][Bta]Q-NH2
modifications: staple 1-4, 4-11; also: later-eluting staple isomer
IC50 [23]: 5 µM | EC50 [24]: 5 µM

B20: I-2619 (peptide)
peptide: Ac-[αAllylPro]D[tBuAla][B5(4)]D[Phe(3-COOH)][Aib]AFL[Az3][3Thi][Bta]Q-NH2
modifications: staple 1-4, 4-11; not fully specified; printed as Ac-PL3-Asp-Npg-B5-Asp-3COOHF-Aib-Ala-Phe-Leu-Az3-3Thi-BztA-Gln-NH2
IC50 [3]: 36 nM
